Molecular target: human IL2Rα (human) (UniProt P01589)
Assay: SPR, IL2Rα captured on Protein A chip, IL2 at 100 nM

Sequence of human IL2Rα (human) (P01589 22-213 limits assumed): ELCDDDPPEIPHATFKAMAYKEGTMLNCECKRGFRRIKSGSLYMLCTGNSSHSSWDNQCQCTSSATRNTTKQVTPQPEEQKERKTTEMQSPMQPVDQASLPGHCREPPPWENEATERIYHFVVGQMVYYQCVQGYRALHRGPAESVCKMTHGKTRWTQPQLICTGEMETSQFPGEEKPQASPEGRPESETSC

RU (at 100 nM): 7.4 RU
Relevant binding to WT IL2 (%): 5.21%
B1: EP225 (ligand)
chain: APTSSSTKKTQLQLEHLLLDLQMILNGINNYKNPKLTRMLTAKFYMPKKATELKHLQCLEEELKPLEEVLNLAQSKNFHLTARDAVDNMRVIIQELKGSETTFMCEYADETATIVEFLNRWITFSQSIISTLTGSHHHHHH
